Results on eleven molecules are retold here after patent US20120034160A1 (AbbVie / Abbott, published 2012).

B1: DVD1287 (bispecific antibody, human IgG1, kappa)
heavy: not shown
light: EIVLTQSPDFQSVTPKEKVTITCRASQNIGSELHWYQQKPDQSPKLLIKYASHSISGVPSRFSGSGSGTDFTLTINGLEAEDAATYYCHQSDTLPHTFGQGTKVDIKRTVAAPDTQVTQSPSSLSASVGDRVTITCITSTDIDVDMNWYQQKPGKPPKLLISQGNTLRPGVPSRFSSSGSGTDFTFTISSLQPEDFATYYCLQSDNLPLTFGQGTKLEIKRTVAAPSVFIFPPSDEQLKSGTASVVCLLNNFYPREAKVQWKVDNALQSGNSQESVTEQDSKDSTYSLSSTLTLSKADYEKHKVYACEVTHQGLSSPVTKSFNRGEC
notes: DVD-Ig, outer AB275, inner AB270, linker set 1; V1 wt hIgG1, V2 kappa; also called DVD1287H; DVD1287L
B2: DVD1291 (bispecific antibody, human IgG1, kappa)
heavy: not shown
light: B1 light with D114E, Q116T
notes: DVD-Ig, outer AB275, inner AB272, linker set 1; V1 wt hIgG1, V2 kappa; also called DVD1291H; DVD1291L
B3: DVD1596 (bispecific antibody, human IgG1, kappa)
heavy: not shown
light: DIQMTQSPSSLSASVGDRVTITCRASSGIISYIDWFQQKPGKAPKRLIYATFDLASGVPSRFSGSGSGTDYTLTISSLQPEDFATYYCRQVGSYPETFGQGTKLEIKRTVAAPSVFIFPPDTVVTQSPAFLSVTPGEKVTITCITSTDIDVDMNWYQQKPDQPPKLLISQGNTLRPGVPSRFSSSGSGTDFTFTISSLEAEDAATYYCLQSDNLPLTFGQGTKLEIKRTVAAPSVFIFPPSDEQLKSGTASVVCLLNNFYPREAKVQWKVDNALQSGNSQESVTEQDSKDSTYSLSSTLTLSKADYEKHKVYACEVTHQGLSSPVTKSFNRGEC
notes: DVD-Ig, outer AB273, inner AB271, linker set 2; V1 wt hIgG1, V2 kappa; also called DVD1596H; DVD1596L
B4: DVD1590 (bispecific antibody, human IgG1, kappa)
heavy: not shown
light: DIQMTQSPSSLSASVGDRVTITCRASSGIISYIDWFQQKPGKAPKRLIYATFDLASGVPSRFSGSGSGTDYTLTISSLQPEDFATYYCRQVGSYPETFGQGTKLEIKRTVAAPSVFIFPPDIQMTQSPSSLSASVGDRVTITCRASGNIHNYLTWYQQTPGKAPKLLIYNAKTLADGVPSRFSGSGSGTDYTFTISSLQPEDIATYYCQHFWSIPYTFGQGTKLQITRTVAAPSVFIFPPSDEQLKSGTASVVCLLNNFYPREAKVQWKVDNALQSGNSQESVTEQDSKDSTYSLSSTLTLSKADYEKHKVYACEVTHQGLSSPVTKSFNRGEC
notes: V1 wt hIgG1, V2 kappa; also called DVD1590H; DVD1590L
B5: DVD1592 (bispecific antibody, human IgG1, kappa)
heavy: not shown
light: B4 light
notes: V1 wt hIgG1, V2 kappa; also called DVD1592H; DVD1592L
B6: DVD1600 (bispecific antibody, human IgG1, kappa)
heavy: not shown
light: EIVLTQSPDFQSVTPKEKVTITCRASQDIGSELHWYQQKPDQPPKLLIKYASHSTSGVPSRFSGSGSGTDFTLTINGLEAEDAGTYYCHQTDSLPYTFGPGTKVDIKRTVAAPSVFIFPPDIQMTQSPSSLSASVGDRVTITCRASGNIHNYLTWYQQTPGKAPKLLIYNAKTLADGVPSRFSGSGSGTDYTFTISSLQPEDIATYYCQHFWSIPYTFGQGTKLQITRTVAAPSVFIFPPSDEQLKSGTASVVCLLNNFYPREAKVQWKVDNALQSGNSQESVTEQDSKDSTYSLSSTLTLSKADYEKHKVYACEVTHQGLSSPVTKSFNRGEC
notes: V1 wt hIgG1, V2 kappa; also called DVD1600H; DVD1600L
B7: DVD1602 (bispecific antibody, human IgG1, kappa)
heavy: not shown
light: B6 light
notes: V1 wt hIgG1, V2 kappa; also called DVD1602H; DVD1602L
B8: DVD1594 (bispecific antibody, human IgG1, kappa)
heavy: not shown
light: DIQMTQSPSSLSASVGDRVTITCRASSGIISYIDWFQQKPGKAPKRLIYATFDLASGVPSRFSGSGSGTDYTLTISSLQPEDFATYYCRQVGSYPETFGQGTKLEIKRTVAAPSVFIFPPDTQVTQSPSSLSASVGDRVTITCITSTDIDVDMNWYQQKPGKPPKLLISQGNTLRPGVPSRFSSSGSGTDFTFTISSLQPEDFATYYCLQSDNLPLTFGQGTKLEIKRTVAAPSVFIFPPSDEQLKSGTASVVCLLNNFYPREAKVQWKVDNALQSGNSQESVTEQDSKDSTYSLSSTLTLSKADYEKHKVYACEVTHQGLSSPVTKSFNRGEC
notes: DVD-Ig, outer AB273, inner AB270, linker set 2; V1 wt hIgG1, V2 kappa; also called DVD1594H; DVD1594L
B9: DVD1598 (bispecific antibody, human IgG1, kappa)
heavy: not shown
light: B8 light with D121E, Q123T
notes: DVD-Ig, outer AB273, inner AB272, linker set 2; V1 wt hIgG1, V2 kappa; also called DVD1598H; DVD1598L
B10: DVD1289 (bispecific antibody, human IgG1, kappa)
heavy: not shown
light: EIVLTQSPDFQSVTPKEKVTITCRASQNIGSELHWYQQKPDQSPKLLIKYASHSISGVPSRFSGSGSGTDFTLTINGLEAEDAATYYCHQSDTLPHTFGQGTKVDIKRTVAAPDTVVTQSPAFLSVTPGEKVTITCITSTDIDVDMNWYQQKPDQPPKLLISQGNTLRPGVPSRFSSSGSGTDFTFTISSLEAEDAATYYCLQSDNLPLTFGQGTKLEIKRTVAAPSVFIFPPSDEQLKSGTASVVCLLNNFYPREAKVQWKVDNALQSGNSQESVTEQDSKDSTYSLSSTLTLSKADYEKHKVYACEVTHQGLSSPVTKSFNRGEC
notes: DVD-Ig, outer AB275, inner AB271, linker set 1; V1 wt hIgG1, V2 kappa; also called DVD1289H; DVD1289L
B11: DVD1604 (bispecific antibody, human IgG1, kappa)
heavy: not shown
light: EIVLTQSPDFQSVTPKEKVTITCRASQDIGSELHWYQQKPDQPPKLLIKYASHSTSGVPSRFSGSGSGTDFTLTINGLEAEDAGTYYCHQTDSLPYTFGPGTKVDIKRTVAAPSVFIFPPDTQVTQSPSSLSASVGDRVTITCITSTDIDVDMNWYQQKPGKPPKLLISQGNTLRPGVPSRFSSSGSGTDFTFTISSLQPEDFATYYCLQSDNLPLTFGQGTKLEIKRTVAAPSVFIFPPSDEQLKSGTASVVCLLNNFYPREAKVQWKVDNALQSGNSQESVTEQDSKDSTYSLSSTLTLSKADYEKHKVYACEVTHQGLSSPVTKSFNRGEC
notes: DVD-Ig, outer AB274, inner AB270, linker set 2; V1 wt hIgG1, V2 kappa; also called DVD1604H; DVD1604L

Numbering of substitutions follows the chain as printed.

The target of the first assay is T1, Recombinant Human IL-17 (human, UniProt Q16552 20-155, limits assumed).
T1 construct: bought reagent
T1 sequence (looked up): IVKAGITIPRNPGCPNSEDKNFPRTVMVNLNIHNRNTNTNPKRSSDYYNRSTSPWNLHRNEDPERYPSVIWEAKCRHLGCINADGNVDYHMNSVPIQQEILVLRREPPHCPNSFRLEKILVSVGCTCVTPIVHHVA
In words: Biacore SPR; N-terminal VD. The method, then:
(§1) The BIACORE assay (Biacore, Inc, Piscataway, N.J.) determines the affinity of antibodies or DVD-Ig with kinetic measurements of on-rate and off-rate constants. Binding of antibodies or DVD-Ig to a target antigen (for example, a purified recombinant target antigen) was determined by surface plasmon resonance-based measurements with a Biacore® 1000 or 3000 instrument (Biacore® AB, Uppsala, Sweden) using running HBS-EP (10 mM HEPES [pH 7.4], 150 mM NaCl, 3 mM EDTA, and 0.005% surfactant P20) at 25° C. All chemicals were obtained from Biacore® AB (Uppsala, Sweden) or otherwise from a different source as described in the text. For example, approximately 5000 RU of goat anti-mouse IgG, (Fcγ), fragment specific polyclonal antibody (Pierce Biotechnology Inc, Rockford, Ill.) diluted in 10 mM sodium acetate (pH 4.5) was directly immobilized across a CM5 research grade biosensor chip using a standard amine coupling kit according to manufacturer's instructions and procedures at 25 μg/ml. Unreacted moieties on the biosensor surface were blocked with ethanolamine. Modified carboxymethyl dextran surface in flowcell 2 and 4 was used as a reaction surface. Unmodified carboxymethyl dextran without goat anti-mouse IgG in flow cell 1 and 3 was used as the reference surface. For kinetic analysis, rate equations derived from the 1:1 Langmuir binding model were fitted simultaneously to association and dissociation phases of all eight injections (using global fit analysis) with the use of Biaevaluation 4.0.1 software. Purified antibodies or DVD-Ig were diluted in HEPES-buffered saline for capture across goat anti-mouse IgG specific reaction surfaces. Antibodies or DVD-Ig to be captured as a ligand (25 μg/ml) were injected over reaction matrices at a flow rate of 5 μl/min. The association and dissociation rate constants, kₒₙ (M⁻¹s⁻¹) and koff (s⁻¹) were determined under a continuous flow rate of 25 μl/min. Rate constants were derived by making kinetic binding measurements at different antigen concentrations ranging from 10−200 nM. The equilibrium dissociation constant (M) of the reaction between antibodies or DVD-Igs and the target antigen was then calculated from the kinetic rate constants by the following formula: KD=koff/kₒₙ. Binding was recorded as a function of time and kinetic rate constants are calculated.
As a reminder, the Kd is a measure of binding affinity in units of concentration. The term koff denotes the first-order rate constant of dissociation. What is called kon is a measure of how fast the partners come together. As for B1, the Kd worked out at 0.3 nM, the koff was 4.7e-05 s⁻¹ and the kon is 160000 M⁻¹ s⁻¹.

Regarding B2, the Kd turned out to be 0.048 nM, the koff stood at 6e-07 s⁻¹ and the kon amounted to 12000 M⁻¹ s⁻¹.

As for B3, the Kd came to 0.0033 nM, the koff stood at 1.3e-05 s⁻¹ and the kon was 4.1e+06 M⁻¹ s⁻¹.

Consider B4, for which the Kd stood at 0.0018 nM, the koff was found to be 7e-06 s⁻¹ and the kon turned out to be 3.8e+06 M⁻¹ s⁻¹.

B5: the Kd is 0.0064 nM, the koff was 2e-05 s⁻¹ and the kon was 3.2e+06 M⁻¹ s⁻¹.

As to B6, the Kd was ≤ 0.0038 nM, the koff is < 1e-06 s⁻¹ and the kon came to 2.8e+06 M⁻¹ s⁻¹.

As for B7, the Kd stood at 0.0051 nM, the koff was found to be 1.4e-05 s⁻¹ and the kon was found to be 2.7e+06 M⁻¹ s⁻¹.

Turning to B8, the Kd was 0.0056 nM, the off-rate constant (koff) was 2.3e-05 s⁻¹ and the kon is 4.2e+06 M⁻¹ s⁻¹.

In the case of B9, the Kd was found to be 0.0051 nM, the koff was 1.8e-05 s⁻¹ and the kon turned out to be 3.5e+06 M⁻¹ s⁻¹.

On to B10, for which the Kd stood at 0.4 nM, the koff came out at 5.6e-05 s⁻¹ and the kon came out at 140000 M⁻¹ s⁻¹.

Take B11: the Kd stood at 0.0026 nM, the koff is 9.7e-06 s⁻¹ and the kon came to 3.8e+06 M⁻¹ s⁻¹.

The target in a further assay is T2, Recombinant Human IL-1β (human, UniProt P01584 117-269).
T2 construct: bought reagent; also called IL-1B
Kind of assay: Biacore SPR; C-terminal VD. The method, then:
as §1
A general note: Surface plasmon resonance follows binding to a sensor surface in real time, without labels.
On to B1, for which the Kd came to 1.2 nM, the koff worked out at 0.00037 s⁻¹ and the kon was determined as 310000 M⁻¹ s⁻¹.

As to B2, the Kd was 2.8 nM, the koff came to 0.00058 s⁻¹ and the kon is 210000 M⁻¹ s⁻¹.

In the case of B3, the Kd came to 0.51 nM, the koff worked out at 0.00036 s⁻¹ and the kon is 700000 M⁻¹ s⁻¹.

With B4, the Kd stood at 0.19 nM, the koff is 4.6e-05 s⁻¹ and the kon was 250000 M⁻¹ s⁻¹.

As to B5, the Kd was determined as 0.0072 nM, the koff worked out at 4.9e-06 s⁻¹ and the kon came out at 690000 M⁻¹ s⁻¹.

Consider B6, for which the Kd was 0.55 nM, the koff turned out to be 9.4e-05 s⁻¹ and the kon turned out to be 170000 M⁻¹ s⁻¹.

For the molecule B7, the Kd turned out to be 0.18 nM, the koff is 2.3e-05 s⁻¹ and the kon stood at 130000 M⁻¹ s⁻¹.

For B8, the Kd was found to be 0.6 nM, the dissociation rate constant (koff) was 0.00043 s⁻¹ and the kon came out at 710000 M⁻¹ s⁻¹.

As to B9, the Kd is 1.2 nM, the koff came to 0.00074 s⁻¹ and the kon was found to be 630000 M⁻¹ s⁻¹.

Regarding B10, the Kd is 1.3 nM, the koff was determined as 0.00048 s⁻¹ and the kon stood at 370000 M⁻¹ s⁻¹.

As to B11, the Kd was found to be 0.29 nM, the koff came out at 0.00037 s⁻¹ and the kon turned out to be 1.3e+06 M⁻¹ s⁻¹.
